From US7033991
Like-named read-outs stand apart in the source and are kept apart here. No end group written: not given here.

Columns and labels:
Conditions in all cases: modification not given
[1] = molecular target: T1, Furin (recombinant, truncated) (mouse), P23188
T1 chain: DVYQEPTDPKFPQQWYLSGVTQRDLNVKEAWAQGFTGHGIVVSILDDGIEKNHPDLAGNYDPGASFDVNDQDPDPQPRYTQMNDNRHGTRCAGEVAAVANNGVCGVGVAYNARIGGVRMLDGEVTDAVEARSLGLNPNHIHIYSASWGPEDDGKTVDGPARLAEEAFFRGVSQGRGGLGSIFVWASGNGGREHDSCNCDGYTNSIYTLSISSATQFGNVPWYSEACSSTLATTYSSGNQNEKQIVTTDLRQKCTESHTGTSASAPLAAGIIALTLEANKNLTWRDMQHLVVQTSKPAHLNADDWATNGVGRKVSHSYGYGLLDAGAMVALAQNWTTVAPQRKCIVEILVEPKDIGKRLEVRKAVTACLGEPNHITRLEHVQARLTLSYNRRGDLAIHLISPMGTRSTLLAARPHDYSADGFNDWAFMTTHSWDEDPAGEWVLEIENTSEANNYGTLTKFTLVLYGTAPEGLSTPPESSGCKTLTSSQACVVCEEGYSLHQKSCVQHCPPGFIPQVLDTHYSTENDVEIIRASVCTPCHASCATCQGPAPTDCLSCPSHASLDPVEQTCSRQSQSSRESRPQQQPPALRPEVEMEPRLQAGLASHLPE

[2] = molecular target: T2, PC2, P16519
T2 chain: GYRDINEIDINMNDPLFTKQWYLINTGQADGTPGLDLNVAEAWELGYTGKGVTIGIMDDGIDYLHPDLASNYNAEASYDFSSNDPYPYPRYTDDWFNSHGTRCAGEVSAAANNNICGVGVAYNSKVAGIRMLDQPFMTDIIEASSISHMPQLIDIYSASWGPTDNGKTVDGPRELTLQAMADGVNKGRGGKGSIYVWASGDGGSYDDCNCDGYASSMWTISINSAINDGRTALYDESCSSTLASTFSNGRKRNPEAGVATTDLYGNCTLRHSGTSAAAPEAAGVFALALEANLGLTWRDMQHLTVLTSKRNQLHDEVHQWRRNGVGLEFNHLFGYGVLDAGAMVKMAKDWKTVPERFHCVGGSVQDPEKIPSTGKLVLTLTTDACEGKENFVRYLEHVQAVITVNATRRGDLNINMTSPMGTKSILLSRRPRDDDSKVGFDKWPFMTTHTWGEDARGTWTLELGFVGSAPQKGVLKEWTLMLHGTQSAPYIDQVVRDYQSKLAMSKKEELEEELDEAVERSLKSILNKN

[3] = molecular target: T2, PC2, P16519
[4] = molecular target: T1, Furin (recombinant, truncated) (mouse), …
[5] = molecular target: T1, Furin (recombinant, truncated) (mouse), …
[6] = molecular target: T3, PACE4, P29122
T3 chain: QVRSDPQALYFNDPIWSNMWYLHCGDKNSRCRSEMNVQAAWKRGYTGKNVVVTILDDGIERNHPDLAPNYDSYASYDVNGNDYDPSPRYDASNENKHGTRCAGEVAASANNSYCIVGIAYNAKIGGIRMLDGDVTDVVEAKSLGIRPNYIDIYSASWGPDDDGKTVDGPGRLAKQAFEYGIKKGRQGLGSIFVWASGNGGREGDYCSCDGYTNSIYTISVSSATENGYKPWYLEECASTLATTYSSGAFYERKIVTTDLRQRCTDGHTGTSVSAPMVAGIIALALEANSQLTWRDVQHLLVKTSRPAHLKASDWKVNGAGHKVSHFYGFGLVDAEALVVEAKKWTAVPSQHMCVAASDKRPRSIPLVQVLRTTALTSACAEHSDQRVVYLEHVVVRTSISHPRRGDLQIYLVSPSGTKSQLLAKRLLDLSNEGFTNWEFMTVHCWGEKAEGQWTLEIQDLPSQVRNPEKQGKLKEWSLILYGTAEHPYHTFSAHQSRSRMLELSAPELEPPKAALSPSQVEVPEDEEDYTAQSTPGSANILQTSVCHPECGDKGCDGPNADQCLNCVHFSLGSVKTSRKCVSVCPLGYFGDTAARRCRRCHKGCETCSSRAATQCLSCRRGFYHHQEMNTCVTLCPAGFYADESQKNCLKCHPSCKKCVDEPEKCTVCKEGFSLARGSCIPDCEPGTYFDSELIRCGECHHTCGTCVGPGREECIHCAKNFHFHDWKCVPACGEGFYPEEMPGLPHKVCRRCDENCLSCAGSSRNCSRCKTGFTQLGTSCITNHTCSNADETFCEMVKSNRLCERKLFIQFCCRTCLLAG

[7] = molecular target: T4, PC1, P29120
T4 chain: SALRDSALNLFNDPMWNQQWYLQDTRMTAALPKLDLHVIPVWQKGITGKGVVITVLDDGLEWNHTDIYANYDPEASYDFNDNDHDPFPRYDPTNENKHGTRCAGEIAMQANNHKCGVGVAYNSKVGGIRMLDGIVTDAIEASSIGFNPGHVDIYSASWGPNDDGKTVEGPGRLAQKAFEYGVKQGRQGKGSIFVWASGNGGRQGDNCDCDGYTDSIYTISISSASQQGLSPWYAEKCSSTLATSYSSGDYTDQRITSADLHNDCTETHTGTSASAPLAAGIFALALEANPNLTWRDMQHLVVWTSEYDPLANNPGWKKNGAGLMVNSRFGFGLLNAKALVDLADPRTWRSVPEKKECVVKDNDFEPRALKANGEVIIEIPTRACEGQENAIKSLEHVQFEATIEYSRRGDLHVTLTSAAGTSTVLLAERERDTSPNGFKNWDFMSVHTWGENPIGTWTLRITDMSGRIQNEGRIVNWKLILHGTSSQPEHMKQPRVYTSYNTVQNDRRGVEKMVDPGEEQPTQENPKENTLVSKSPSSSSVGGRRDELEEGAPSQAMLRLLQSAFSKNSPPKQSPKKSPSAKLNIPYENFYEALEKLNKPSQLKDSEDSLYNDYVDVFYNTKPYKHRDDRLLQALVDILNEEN

[8] = molecular target: T2, PC2, P16519
[9] = molecular target: T1, Furin (recombinant, truncated) (mouse), …
[10] = molecular target: T2, PC2, P16519
[11] = molecular target: T1, Furin (recombinant, truncated) (mouse), …
[12] = molecular target: T5, PC7, Q16549
T5 chain: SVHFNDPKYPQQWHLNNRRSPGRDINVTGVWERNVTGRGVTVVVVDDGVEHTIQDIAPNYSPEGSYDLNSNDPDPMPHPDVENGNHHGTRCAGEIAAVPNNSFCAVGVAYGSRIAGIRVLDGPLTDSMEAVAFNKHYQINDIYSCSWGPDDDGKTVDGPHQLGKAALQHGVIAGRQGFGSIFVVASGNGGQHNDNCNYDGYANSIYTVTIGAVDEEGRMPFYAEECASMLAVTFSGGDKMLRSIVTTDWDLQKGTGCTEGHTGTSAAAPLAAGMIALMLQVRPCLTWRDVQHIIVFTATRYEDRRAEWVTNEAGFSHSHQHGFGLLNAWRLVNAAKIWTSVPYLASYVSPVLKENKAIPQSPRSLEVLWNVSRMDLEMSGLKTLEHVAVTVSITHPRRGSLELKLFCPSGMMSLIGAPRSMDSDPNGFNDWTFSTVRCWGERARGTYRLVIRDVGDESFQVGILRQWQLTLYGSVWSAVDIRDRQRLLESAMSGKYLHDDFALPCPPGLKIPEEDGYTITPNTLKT

[13] = molecular target: Furin (literature), P09958
Sequence of Furin (literature), P09958 (P09958 108-715): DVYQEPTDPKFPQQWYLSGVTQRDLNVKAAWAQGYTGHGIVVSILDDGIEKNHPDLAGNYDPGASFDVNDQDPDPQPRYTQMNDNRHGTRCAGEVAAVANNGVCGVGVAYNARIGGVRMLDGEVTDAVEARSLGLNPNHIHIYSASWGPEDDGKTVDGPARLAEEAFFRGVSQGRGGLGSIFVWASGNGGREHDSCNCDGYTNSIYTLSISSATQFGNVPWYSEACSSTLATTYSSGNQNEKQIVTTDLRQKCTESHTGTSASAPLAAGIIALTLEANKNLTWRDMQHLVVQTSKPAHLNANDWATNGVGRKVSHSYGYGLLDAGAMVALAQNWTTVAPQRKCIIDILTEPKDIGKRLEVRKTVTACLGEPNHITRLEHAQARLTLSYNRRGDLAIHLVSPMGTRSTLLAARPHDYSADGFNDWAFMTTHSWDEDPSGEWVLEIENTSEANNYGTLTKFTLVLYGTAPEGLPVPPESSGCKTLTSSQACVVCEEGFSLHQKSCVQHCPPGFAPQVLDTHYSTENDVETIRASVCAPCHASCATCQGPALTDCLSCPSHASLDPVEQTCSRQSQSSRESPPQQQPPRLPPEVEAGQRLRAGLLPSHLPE

[14] = molecular target: T3, PACE4, P29122
[15] = molecular target: T4, PC1, P29120
[16] = molecular target: T1, Furin (recombinant, truncated) (mouse), …
[17] = molecular target: T1, Furin (recombinant, truncated) (mouse), …
[18] = molecular target: T2, PC2, P16519
[19] = molecular target: T3, PACE4, P29122
[20] = molecular target: T4, PC1, P29120
[21] = molecular target: T1, Furin (recombinant, truncated) (mouse), …
[22] = molecular target: T2, PC2, P16519
[23] = molecular target: T1, Furin (recombinant, truncated) (mouse), …
[24] = molecular target: T2, PC2, P16519
[25] = molecular target: T1, Furin (recombinant, truncated) (mouse), …

Ac-HRKRRR-NH2 [Ac-HRKRRR-NH2]
Ki [1]: 2.1 µM | Ki [2]: 309 µM

Ac-RRKRRR-NH2 [Ac-RRKRRR-NH2]
Ki [3]: 461 µM | Ki [4]: 1.3 µM

RRRRRRRRR [Nona-L-arginine]
Ki [5]: 0.042 µM | Ki [6]: 0.11 µM | Ki [7]: 12 µM

Ac-RHKRRR-NH2 [Ac-RHKRRR-NH2]
Ki [8]: 152 µM | Ki [9]: 3.4 µM

Ac-LLRVKR-NH2 [Ac-LLRVKR-NH2]
Ki [10]: 1 µM | Ki [11]: 3.4 µM

EQRLLKRAKR [PC7 propeptide fragment]
Ki [12]: 0.006 µM | Ki [13]: 0.08 µM

RRRRRRRR [Octa-L-arginine]
Ki [14]: 0.15 µM | Ki [15]: 5.1 µM | Ki [16]: 0.061 µM

Ac-KRKRRR-NH2 [Ac-KRKRRR-NH2]
Ki [17]: 1.6 µM | Ki [18]: 391 µM

RRRRR [Penta-L-arginine]
Ki [19]: 0.98 µM | Ki [20]: 14 µM | Ki [21]: 0.99 µM

Ac-KHKRRR-NH2 [Ac-KHKRRR-NH2]
Ki [22]: 280 µM | Ki [23]: 5.2 µM

Ac-LLRVKR [Ac-LLRVKR]
Ki [24]: 1.3 µM | Ki [25]: 3.5 µM
